Source: patent US20240327538A1 (AMUNIX PHARMACEUTICALS, published 2024)
One block for each binder: values may come before it.

Assays:
[1] = target: T1, hPSMA antigen (with an added HHHHHH sequence) (human, UniProt Q04609 44-750); test: in vitro screening of VHH from immunized llamas
T1 construct: also called human PSMA (hPSMA)

[2] = target: T2, human PSMA-Fc (human, UniProt Q04609 44-750, limits assumed); test: linker length / domain swap comparison
T2 construct: also called Human PSMA-Fc fusions; not shown: Fc part

[3] = target: T2, human PSMA-Fc; test: Octet
[4] = target: T2, human PSMA-Fc; test: Octet, human PSMA-Fc
Procedure: Binding affinity of select PSMA PTE variants was tested by Octet.

[5] = target: T3, human CD3 epsilon (human, UniProt P07766 23-126, limits assumed); test: Octet
T3 construct: also called huCD3e

[6] = target: T4, cynomolgus monkey CD3 epsilon (cynomolgus monkey, UniProt Q95LI5 22-117, limits assumed); test: Octet
T4 construct: also called cyCD3e
T4 sequence (looked up): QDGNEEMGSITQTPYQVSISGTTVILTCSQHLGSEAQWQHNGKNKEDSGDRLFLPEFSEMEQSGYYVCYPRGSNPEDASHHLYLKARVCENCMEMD

[7] = target: T5, cynomolgus monkey PSMA (cynomolgus monkey, UniProt A0A2K5VNZ0 44-750); test: Octet
T5 construct: also called cyPSMA; Cyno PSMA

[8] = target: T6, human PSMA (human, UniProt Q04609 44-750, limits assumed); test: Octet
T6 construct: also called huPSMA

[9] = target: T7, Cyno CD3 (cynomolgus monkey, UniProt Q95LI5 22-117); test: BLI or SPR
T7 construct: also called cynomolgus monkey CD3; not shown: A CD3 delta partner cannot be excluded
T7 sequence: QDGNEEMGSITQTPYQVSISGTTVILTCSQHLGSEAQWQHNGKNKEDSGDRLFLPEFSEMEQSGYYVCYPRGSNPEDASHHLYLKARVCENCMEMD

[10] = target: T8, Human CD3 (human, UniProt P07766 23-126); test: BLI or SPR
T8 construct: not shown: A CD3 delta partner cannot be excluded

[11] = target: T6, human PSMA; test: BLI or SPR
Description: The values are reported below in Table 19 for PSMA and Table 20 for CD3.

T2 sequence (Q04609 44-750 limits assumed): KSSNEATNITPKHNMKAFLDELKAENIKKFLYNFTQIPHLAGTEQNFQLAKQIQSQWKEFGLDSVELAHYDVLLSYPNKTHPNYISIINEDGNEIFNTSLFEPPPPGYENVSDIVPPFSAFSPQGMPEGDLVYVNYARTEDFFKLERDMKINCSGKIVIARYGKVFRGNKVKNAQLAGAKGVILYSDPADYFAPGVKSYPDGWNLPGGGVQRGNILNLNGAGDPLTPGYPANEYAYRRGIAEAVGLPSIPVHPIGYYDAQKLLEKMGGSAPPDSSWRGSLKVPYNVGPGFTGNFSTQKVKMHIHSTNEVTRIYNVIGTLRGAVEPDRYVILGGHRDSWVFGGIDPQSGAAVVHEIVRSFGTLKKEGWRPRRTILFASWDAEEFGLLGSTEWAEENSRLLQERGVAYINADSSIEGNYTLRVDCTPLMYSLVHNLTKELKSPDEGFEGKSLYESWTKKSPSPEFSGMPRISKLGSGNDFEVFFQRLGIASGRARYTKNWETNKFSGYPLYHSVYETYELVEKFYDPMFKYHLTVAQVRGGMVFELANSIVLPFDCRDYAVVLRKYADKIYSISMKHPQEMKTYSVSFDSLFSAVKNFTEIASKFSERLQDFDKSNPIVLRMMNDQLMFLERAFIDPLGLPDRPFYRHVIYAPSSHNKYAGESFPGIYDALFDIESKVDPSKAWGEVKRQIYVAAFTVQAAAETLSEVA
T1 sequence (Q04609 other isoform, or with tags, fused parts or gaps limits assumed): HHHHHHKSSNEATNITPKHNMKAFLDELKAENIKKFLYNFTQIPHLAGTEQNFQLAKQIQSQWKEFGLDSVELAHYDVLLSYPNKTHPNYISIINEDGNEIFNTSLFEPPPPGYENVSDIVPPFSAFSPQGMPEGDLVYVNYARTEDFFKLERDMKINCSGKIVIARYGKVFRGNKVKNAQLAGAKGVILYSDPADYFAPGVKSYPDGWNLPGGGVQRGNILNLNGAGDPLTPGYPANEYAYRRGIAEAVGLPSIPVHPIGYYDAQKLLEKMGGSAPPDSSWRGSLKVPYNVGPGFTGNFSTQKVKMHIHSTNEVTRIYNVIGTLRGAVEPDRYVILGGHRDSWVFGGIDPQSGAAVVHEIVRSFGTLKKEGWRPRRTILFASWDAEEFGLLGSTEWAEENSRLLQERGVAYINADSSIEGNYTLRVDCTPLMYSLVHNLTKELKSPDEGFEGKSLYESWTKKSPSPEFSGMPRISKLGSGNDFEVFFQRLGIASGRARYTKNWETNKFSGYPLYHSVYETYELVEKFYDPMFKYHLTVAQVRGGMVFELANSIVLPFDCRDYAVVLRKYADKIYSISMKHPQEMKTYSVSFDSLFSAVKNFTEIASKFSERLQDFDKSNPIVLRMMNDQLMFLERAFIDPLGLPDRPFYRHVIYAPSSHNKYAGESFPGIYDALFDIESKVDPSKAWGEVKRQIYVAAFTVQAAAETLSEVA
T6 sequence (Q04609 44-750 limits assumed): as the sequence (Q04609 44-750 limits assumed) above
T3 sequence (P07766 23-126 limits assumed): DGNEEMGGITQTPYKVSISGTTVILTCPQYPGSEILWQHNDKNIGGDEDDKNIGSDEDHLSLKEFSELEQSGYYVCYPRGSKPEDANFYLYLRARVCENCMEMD
T8 sequence (P07766 23-126 limits assumed): as above

B1: P01C01R3 (VHH)
VHH: QVQLVESGGGLVQAGGSLRLSCAASGRTVNSYAMGWFRQAPGKEREFVASQSWMGAITYDADYADSVKGRFTISRDNAKNTLYLQMNSLKPEDTAVYRCAASRQARPGLHVREYDVWGQGTQVTVSS
binding result [1]: binds

B7: AMX-500(1x-C) (bispecific antibody)
chain: ASSATPESGPGTSTEPSEGSAPGTSESATPESGPGSGPGTSESATPGTSESATPESGPGSEPATSGSETPGTSESATPESGPGTSTEPSEGSAPGSPAGSPTSTEEGTSESATPESGPGSEPATSGSETPGTSESATPESGPGSPAGSPTSTEEGSPAGSPTSTEEGTSTEPSEGSAPGTSESATPESGPGTSESATPESGPGTSESATPESGPGSEPATSGSETPGSEPATSGSETPGSPAGSPTSTEEGTSTEPSEGSAPGTSTEPSEGSAPGSEPATSGSETPGTSESATPEAGRSASHTPAGLTGPGTSESATPESQVQLVESGGGVVQPGRSLRLSCAASGRTFGIYVWGWFRQAPGKEREFVGAMSWSGSNRKVSDSVKGRFTISRDNSKNTLYLQMNSLRAEDTAVYYCAASNKEYGRTWYDFNESDYWGQGTQVTVSSGGGGSGGGSELVVTQEPSLTVSPGGTVTLTCRSSNGAVTSSNYANWVQQKPGQAPRGLIGGTNKRAPGTPARFSGSLLGGKAALTLSGVQPEDEAVYYCALWYPNLWVFGGGTKLTVLSESATPESGPGTSPGATPESGPGTSESATPEVQLVESGGGIVQPGGSLRLSCAASGFTFSTYAMNWVRQAPGKGLEWVGRIRTKRNNYATYYADSVKGRFTISRDDSKNTVYLQMNSLKTEDTAVYYCVRHENFGNSYVSWFAHWGQGTLVTVSSGTATPESGPGEAGRSASHTPAGLTGPATPESGPGTSESATPESGPGSPAGSPTSTEEGTSESATPESGPGSEPATSGSETPGTSESATPESGPGTSTEPSEGSAPGTSTEPSEGSAPGTSTEPSEGSAPGTSTEPSEGSAPGTSTEPSEGSAPGTSTEPSEGSAPGSPAGSPTSTEEGTSTEPSEGSAPGTSESATPESGPGSEPATSGSETPGTSESATPESGPGSEPATSGSETPGTSESATPESGPGTSTEPSEGSAPGTSESATPESGPGSPAGSPTSTEEGSPAGSPTSTEEGSPAGSPTSTEEGTSESATPESGPGTSTEPSEGSAPGTSESATPESGPGSEPATSGSETPGTSESATPESGPGSEPATSGSETPGTSESATPESGPGTSTEPSEGSAPGSPAGSPTSTEEGTSESATPESGPGSEPATSGSETPGTSESATPESGPGSPAGSPTSTEEGSPAGSPTSTEEGTSTEPSEGSAPGTSESATPESGPGTSESATPESGPGTSPSATPESGPGSEPATSGSETPGSEPATSGSETPGSPAGSPTSTEEGTSTEPSEGSAPGTSTEPSEGSAPGSEPATSGSETPGTSESAGEPEA
Kd [9]: 26.7 nM
Kd [10]: 34.4 nM
Kd [11]: 353 nM

B8: P01G03R3 (VHH)
VHH: EVQLVESGGGLVQAGGSLRLSCVVSGIAFSPYHMAWYRQAPGKQHEWVAVITTGGTTAYNETVEGRFSISRDNARSTVYLQMNSLKPEDTAVYYCNIYGLSLKWGQGTQVTVSS
binding result [1]: binds

B9: P01E02R3 (VHH)
VHH: EVQLVESGGGLVQAGGSLKLSCVANGPTFSTYAMAWFRQAPGKEHEFVAAITGDGDTTNNADSVKGRFTISRDNAKNRVYLQLNSLKPEDTAAYYCAAGVHHTYTIPRLWLYWGQGTQVTVSS
binding result [1]: binds

B10: CB01A01R3 (VHH)
VHH: EVQLVESGGGLVQAGGSLRISCTASERSVSTYTKGWFRQAPGKERHLVAAISYNGDTTYYSDSVKGRFTISRDNVKNTVNLQMNSLKPEDTAVYFCAARGSSWLYGTWDDYHYWGQGTQVTVSS
binding result [1]: binds

Next, values leading:

Kd [2]: 3.5 nM
koff [2]: 0.00027 s⁻¹
kon [2]: 77000 M⁻¹ s⁻¹
Kd [3]: 3.5 nM
B2: uTCE of AC3354 (bispecific antibody)
chain: LTGPATSGSETPGTQVQLVESGGGVVQPGRSLRLSCAASGRTFGIYVMGWVRQAPGKEREFVAAISWSGSNRLVSDSVKGRFTISRDNSKNTLYLQMNSLRAEDTAVYYCAASNRLYGRTWYDFNESDYWGQGTQVTVSSGATPPETGAETESPGELVVTQEPSLTVSPGGTVTLTCRSSNGAVTSSNYANWVQQKPGQAPRGLIGGTNKRAPGTPARFSGSLLGGKAALTLSGVQPEDEAVYYCALWYPNLWVFGGGTKLTVLGATPPETGAETESPGETTGGSAESEPPGEGEVQLLESGGGIVQPGGSLKLSCAASGFTFNTYAMNWVRQAPGKGLEWVARIRSKYNNYATYYADSVKDRFTISRDDSKNTVYLQMNNLKTEDTAVYYCVRHENFGNSYVSWFAHWGQGTLVTVSSGTAEAASASGEAGRSANHTPAG
notes: unmasked TCE of this paTCE; 15-residue VHH-scFv linker; also called PSMA.5 (15 mer)

Kd [2]: 2.1 nM
koff [2]: 0.00022 s⁻¹
kon [2]: 110000 M⁻¹ s⁻¹
Kd [3]: 2.1 nM
B3: uTCE of AC3353 (bispecific antibody)
chain: LTGPATSGSETPGTQVQLVESGGGVVQPGRSLRLSCAASGRTFGIYVMGWVRQAPGKEREFVAAISWSGSNRLVSDSVKGRFTISRDNSKNTLYLQMNSLRAEDTAVYYCAASNRLYGRTWYDFNESDYWGQGTQVTVSSGGGGSELVVTQEPSLTVSPGGTVTLTCRSSNGAVTSSNYANWVQQKPGQAPRGLIGGTNKRAPGTPARFSGSLLGGKAALTLSGVQPEDEAVYYCALWYPNLWVFGGGTKLTVLGATPPETGAETESPGETTGGSAESEPPGEGEVQLLESGGGIVQPGGSLKLSCAASGFTFNTYAMNWVRQAPGKGLEWVARIRSKYNNYATYYADSVKDRFTISRDDSKNTVYLQMNNLKTEDTAVYYCVRHENFGNSYVSWFAHWGQGTLVTVSSGTAEAASASGEAGRSANHTPAG
notes: unmasked TCE of this paTCE; 5-residue VHH-scFv linker; also called PSMA.5 (5 mer)

Kd [2]: 2.4 nM
koff [2]: 0.00018 s⁻¹
kon [2]: 76000 M⁻¹ s⁻¹
Kd [3]: 2.4 nM
B4: uTCE of AC3356 (bispecific antibody)
chain: LTGPATSGSETPGTQVQLVESGGGVVQPGRSLRLSCAASGRTFGIYVMGWVRQAPGKEREFVAAISWSGSNRLVSDSVKGRFTISRDNSKNTLYLQMNSLRAEDTAVYYCAASNRLYGRTWYDFNESDYWGQGTQVTVSSGGGGSGGGSEVQLLESGGGIVQPGGSLKLSCAASGFTFNTYAMNWVRQAPGKGLEWVARIRSKYNNYATYYADSVKDRFTISRDDSKNTVYLQMNNLKTEDTAVYYCVRHENFGNSYVSWFAHWGQGTLVTVSSGATPPETGAETESPGETTGGSAESEPPGEGELVVTQEPSLTVSPGGTVTLTCRSSNGAVTSSNYANWVQQKPGQAPRGLIGGTNKRAPGTPARFSGSLLGGKAALTLSGVQPEDEAVYYCALWYPNLWVFGGGTKLTVLGTAEAASASGEAGRSANHTPAG
notes: unmasked TCE of this paTCE; CD3.23 in VH-VL order; also called PSMA.5 (domain swap)

Kd [3]: 5.6 nM
Kd [4]: 5.6 nM
koff [4]: 0.000479 s⁻¹
kon [4]: 86600 M⁻¹ s⁻¹
B5: uTCE of AC3342 (bispecific antibody, V domains shown)
VH: QVQLVESGGGVVQPGRSLRLSCAASGRTFGIYVMGWVRQAPGKEREFVAAISWSGSNRLVSDSVKGRFTISRDNSKNTLYLQMNSLRAEDTAVYYCAASNKLYGRTWYDFNESDYWGQGTQVTVSS
notes: VHH in uTCE with CD3.23 scFv (VL-VH), 9-residue linker; also called PSMA.132; R101K

Kd [5]: 34.8 nM
Kd [6]: 40 nM
Kd [7]: 47.5 nM
Kd [8]: 6.2 nM
B6: uTCE from AC3445 (bispecific antibody)
chain: LTGPGTSESATPESQVQLVESGGGVVQPGRSLRLSCAASGRTFGIYVMGWVRQAPGKEREFVAAISWSGSNRKVSDSVKGRFTISRDNSKNTLYLQMNSLRAEDTAVYYCAASNRLYGRTWYDFNESDYWGQGTQVTVSSGGGGSGGGSELVVTQEPSLTVSPGGTVTLTCRSSNGAVTSSNYANWVQQKPGQAPRGLIGGTNKRAPGTPARFSGSLLGGKAALTLSGVQPEDEAVYYCALWYPNLWVFGGGTKLTVLSESATPESGPGTSPGATPESGPGTSESATPEVQLLESGGGIVQPGGSLKLSCAASGFTFNTYAMNWVRQAPGKGLEWVARIRSKYNNYATYYADSVKDRFTISRDDSKNTVYLQMNNLKTEDTAVYYCVRHENFGNSYVSWFAHWGQGTLVTVSSGTATPESGPGEAGRSANHTPAG
notes: unmasked TCE released from this paTCE; also called PSMA.119-CD3.23 uTCE

binding result [1]: binds
B11: CB01B02R3 (VHH)
VHH: QVQLVESGGGLVQAGDSLRLSCVTSGRTFDVYAMGWFRQAPGKERELVAAINWSGSNKFHADSVKGRFTISRDNAWKTLSLQMNSLKPEDTAVYFCAASTRLYGTTWYEFNDSDYWGQGTQVTVSS
notes: also called PSMA.3

binding result [1]: binds
B12: CB01H01R3 (VHH)
VHH: EVQLVESGGGSVQAGGSLSLSCVASGRTFGIYVMGWFRQAPGKEREFVAAISWSGSNRLVSDSVKGRFTISRENAKNTIYLQMNGLKPEDTANYFCAASNRLYGRTWYDFNESDYWGQGTQVTVSS
notes: also called PSMA.2
